Assays:
MBP protein = MBP protein (UniProt P0AEX9 27-392 = MBP); experiment: SPR (Biacore 8K), antibody captured on anti-human IgG (Fc), MBP injected
Human Type 1 mutCALR [1] = target: T1, Human Type 1 mutCALR (human); experiment: cell-based or functional assay
T1 chain: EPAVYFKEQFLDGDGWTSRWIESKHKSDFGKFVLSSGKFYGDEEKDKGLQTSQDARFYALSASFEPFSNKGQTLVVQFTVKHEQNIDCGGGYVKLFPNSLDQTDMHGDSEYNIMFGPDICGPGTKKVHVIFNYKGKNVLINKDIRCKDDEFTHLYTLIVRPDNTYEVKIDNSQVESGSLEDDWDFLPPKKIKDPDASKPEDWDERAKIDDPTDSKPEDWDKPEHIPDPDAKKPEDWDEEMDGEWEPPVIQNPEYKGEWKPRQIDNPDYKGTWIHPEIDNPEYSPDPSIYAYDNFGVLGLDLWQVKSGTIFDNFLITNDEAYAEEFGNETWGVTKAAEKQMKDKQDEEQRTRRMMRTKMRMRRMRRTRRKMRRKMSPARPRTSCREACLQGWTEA

Human Type 1 mutCALR [2] = target: T1, Human Type 1 mutCALR; experiment: cell-based or functional assay
Human Type 1 mutCALR [3] = target: T1, Human Type 1 mutCALR; experiment: cell-based or functional assay
[4] = target: T2, Recombinant MBP-mutCALR Type 2 fusion protein (human); experiment: SPR, IgG captured, 1:1 fit, Exp. 3
T2 construct: custom made at Cepter
Description: Experiment 2: Recombinant MBP-mutCALR Type 1 fusion protein was custom made at Cepter (cepterbiopartners.com). Data for the interaction of antibodies with recombinant mutCALR protein were collected at 25° C. on a Biacore 8K instrument (Cytiva, Marlborough, Mass.), and all reagents were obtained from Cytiva unless otherwise specified. The experiments were conducted using Tris-buffered saline (pH 7.2), 0.005% Surfactant P20, 1 mM CaCl₂) as running buffer. To prepare the capture surfaces, anti-human IgG (Fc) antibodies (Product #29234600) was amine-coupled onto a CM4 chip (Product #BR100534) under standard conditions using an Amine Coupling Kit (Product #BR100050). […] The kinetics parameters were obtained by applying 1:1 binding model to fit the data from multiple-cycle injection experiments using Biacore Insight Evaluation software.
Recombinant MBP-mutCALR Type 2 fusion protein was custom made at Cepter (cepterbiopartners.com). Data for the interaction of antibodies with recombinant MBP-mutCALR Type 2 fusion protein were collected as described in Experiment 2. The chip used was a Biacore Series S Sensor Chip CM4 with anti-huFc immobilized onto the chip surface.

[5] = target: T3, Recombinant MBP-mutCALR Type 1 fusion protein (human); experiment: SPR, IgG captured, 1:1 fit, Exp. 2
T3 construct: custom made at Cepter; also called recombinant mutCALR protein
Method in brief: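 Antibodies captured via amine-coupled anti-human IgG (Fc) on a CM4 chip; recombinant MBP-mutCALR Type 1 fusion protein as analyte. Run at 25 °C in Tris-buffered saline pH 7.2, 0.005% P20, 1 mM CaCl₂. Multiple-cycle kinetics fitted to a 1:1 binding model.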

B1: anti-mutCALR antibody clone 53 (antibody, human IgG1, lambda, V domains shown)
VH: QVQLVQSGAEVKKPGASVKVSCKVSGYTLTELSMHWVRQAPGKGLEWMGGFDPEDGETIYAQKFQGRVTMTEDTSTDTAYMELSSLRSEDTAVYYCATDIQGLAEFDYWGQGTLVTVSS
VL: QSALTQPRSVSGSPGQSVTISCTGTNTDVGAYIDVSWYQQHPGKAPKLIIYDVSKWPSGVPDRFSGSKSGNTASLTISGLQAEDEADYYCCSYAGNHSFSFGGGTKVTVLG
notes: human IgG1; group 13
binding result (MBP protein): no binding (tested: 250 nM)

B2: anti-mutCALR antibody clone 40 (antibody, human IgG1, lambda, V domains shown)
VH: EVQLVQSGAEVKKPGASVKVSCKVSGYTLTESSMHWVRQAPGKGLEWMGLVDPEDGETIYAQKFQGRVTMTEDTSTDTAYMELSSLRSEDTAVYYCAREEWSGDGDDAFDIWGQGTMVTVSS
VL: QSVLTQPPSVSAAPGQKVTISCSGSSSNIGSYSVSWYQQLPGTAPKLLIYDNNKRPSGIPDRFSGSNSGTSATLGITGLQTGDEADYYCGTWDSSLSAWVFGGGTKLTVLG
IC50 of inhibition of cell proliferation (Ba/F3 cells with MPL and mutCALR Type 1) (Human Type 1 mutCALR [1]): 0.0384 µg/mL
Log IC50 of inhibition of cell proliferation, antibody + ruxolitinib (Ba/F3-TPOR/mutCALR type 1 cells); extrapolated from fitted curve (Human Type 1 mutCALR [2]): -1.59 Log IC50 (µg/mL)

B3: anti-mutCALR antibody clone 41 (antibody, human IgG1, lambda, V domains shown)
VH: EVQLVQSGAEVKKPGASVKVSCKVSGYTLTELSMHWVRQAPGKGLEWMGLVDPEDGETIYAQKFQGRVTMTEDTSTDTAYMELSSLRSEDTAVYYCAREEWSGDGDDAFDIWGQGTMVTVSS
VL: QSVLTQPPSVSAAPGQKVTISCSGSSSNIGSYSVSWYQQLPGTAPKLLIYDNNKRPSGIPDRFSGSNSGTSATLGITGLQTGDEADYYCGTWDSSLSAWVFGGGTKLTVLG
IC50 of inhibition of cell proliferation (Ba/F3 cells with MPL and mutCALR Type 1) (Human Type 1 mutCALR [1]): 0.342 µg/mL
IC50 of inhibition of cell proliferation (BaF3 cells expressing MPL/mutCALR Type 1) (Human Type 1 mutCALR [3]): 3.98 µg/mL

B4: anti-mutCALR antibody clone 52 (antibody, human IgG1, kappa, V domains shown)
VH: EVQLVQSGAEVKKPGASVKVSCKVSGYTLTELSMHWVRQAPGKGLEWMGLVDPEDGETIYAEKFQGRVTITADTSTDTAYMELSSPRSEDTAVYYCATTIGDDYFDYWGQGTLVTVSS
VL: not shown
IC50 of inhibition of cell proliferation (Ba/F3 cells with MPL and mutCALR Type 1) (Human Type 1 mutCALR [1]): 0.0337 µg/mL
Log IC50 of inhibition of cell proliferation, antibody + ruxolitinib (Ba/F3-TPOR/mutCALR type 1 cells) (Human Type 1 mutCALR [2]): -0.709 Log IC50 (µg/mL)

B5: anti-mutCALR antibody clone 65 (antibody, human IgG1, lambda, N297A, V domains shown)
VH: EVQLVQSGAEVKKPGASVKVSCKVSGYTLTELSMQWVRQAPGKGLEWMGGFDPDDGETMYAEKFQGRLTVTEDTSTDTVYMELRSLTSEDTALYFCATSPGYDFFDYWGQGTLVTVSS
VL: SYVLTQPPSVSVAPGKTARITCTGTSSDVGGYNYVSWYQQKPGQAPVLVVYEVSNRPSGIPERFSGSNSGNTATLTISRVEAGDEADYYCQVWDSSNDLLIFGGGTKLTVLG
notes: human IgG1 N297A variant of clone 6
Kd [4]: 6.35 nM
koff [4]: 0.00424 s⁻¹
kon [4]: 668000 M⁻¹ s⁻¹
Kd [5]: 0.502 nM
koff [5]: 0.00231 s⁻¹
kon [5]: 4.6e+06 M⁻¹ s⁻¹

B6: anti-mutCALR antibody clone 74 (antibody, human IgG1, lambda, N297A, V domains shown)
VH: EVQLVQSGAEVKKPGASVKVSCKVSGYTLTELSMQWVRQAPGKGLEWMGGFDPDDAETMYAEKFQGRLTVTEDTSTDTVYMELSSLRSEDTAVYFCATSPGYDFFDYWGQGTLVTVSS
VL: SYVLTQPPSVSVAPGKTARITCTGTSSDVGGYNYVSWYQQKPGQAPVLVVYEVSNRPSGIPERFSGSNSGNTATLTISRVEAGDEADYYCQVWDSSNDLLIFGGGTKLTVLG
notes: as for B5
Kd [4]: 6.78 nM
koff [4]: 0.00579 s⁻¹
kon [4]: 854000 M⁻¹ s⁻¹
Kd [5]: 1.19 nM
koff [5]: 0.00153 s⁻¹
kon [5]: 1.29e+06 M⁻¹ s⁻¹

B7: anti-mutCALR antibody clone 32 (antibody, human IgG1, lambda, V domains shown)
VH: QVQLVQSGAEVKKPGATVKISCKVSGYSFTDYFIHWVQQAPGKGLAWVGLVDPEDGETIYAEKFQGRVTITADTSTDTAYMELSSLRSEDTAVYYCATPGGILTDPDAFDIWGQGTMVTVSS
VL: QSALTQPASVSGSPGQSITISCTGTSSDVGGYNYVSWYQQHPGKAPKLMIYEVSNRPSGVSNRFSGSKSGNTASLTISGLQAEDEADYYCSSYTSSSTPYVFGTGTKVTVLG
IC50 of inhibition of cell proliferation (Ba/F3 cells with MPL and mutCALR Type 1) (Human Type 1 mutCALR [1]): 0.225 µg/mL
Log IC50 of inhibition of cell proliferation, antibody + ruxolitinib (Ba/F3-TPOR/mutCALR type 1 cells); extrapolated from fitted curve (Human Type 1 mutCALR [2]): -0.586 Log IC50 (µg/mL)
Log IC50 of inhibition of cell proliferation, antibody alone (Ba/F3-TPOR/mutCALR type 1 cells); extrapolated from fitted curve (Human Type 1 mutCALR [2]): 0.18 Log IC50 (µg/mL)

B8: anti-mutCALR antibody clone 31 (antibody, human IgG1, lambda, V domains shown)
VH: QVQLVQSGAEVKKPGATVKISCKVSGYSFTDYFIHWVQQAPGKGLAWVGLVDPEDGETIYAEKFQGRVTITADTSTDTAYMELSSLRSEDTAVYYCATPGGILTDPDAFDIWGQGTMVTVSS
VL: QSALTQPASVSGSPGQSVTISCTGTSSDVGGYNYVSWYQHHPGKAPKLMIYDVNKRPSGVPDRFSGSKSGNTASLTISGLQAEDEADYYCSSYIPSSTRWVFGGGTKLTVLG
IC50 of inhibition of cell proliferation (Ba/F3 cells with MPL and mutCALR Type 1) (Human Type 1 mutCALR [1]): 13 µg/mL

B9: anti-mutCALR antibody clone 37 (antibody, human IgG1, lambda, V domains shown)
VH: QVQLVQSGAEVKKPGATVKISCKVSGYSFTDYFIHWVQQAPGKGLAWVGLVDPEDGETIYAEKFQGRVTITADTSTDTAYMELSSLRSEDTAVYYCATPGGILTDPDAFDIWGQGTMVTVSS
VL: QSALTQPASVSGSPGQSITISCTGTSSDVGGYNYVSWYQQHPGKAPKLMIYDVSNRPSGVSNRFSGSKSGNTASLTISGLQAEDEADYYCSSYTSSSTFYVFGTGTKVTVLG
IC50 of inhibition of cell proliferation (BaF3 cells expressing MPL/mutCALR Type 1) (Human Type 1 mutCALR [3]): 0.201 µg/mL

B10: anti-mutCALR antibody clone 33 (antibody, human IgG1, lambda, V domains shown)
VH: QVQLVQSGAEVKKPGATVKISCKVSGYSFTDYFIHWVQQAPGKGLAWVGLVDPEDGETIYAEKFQGRVTITADTSTDTAYMELSSLRSEDTAVYYCATPGGILTDPDAFDIWGQGTMVTVSS
VL: QSALTQPRSVSGSPGQSVTISCAGTGSDVGGYNHVSWYQHHPGKAPKLMIYDVNKRPSGVPDRFSGSKSGNTASLTISGLQAEDEADYYCSSYIPSSTRWVFGGGTKLTVLG
IC50 of inhibition of cell proliferation (Ba/F3 cells with MPL and mutCALR Type 1) (Human Type 1 mutCALR [1]): 16.9 µg/mL

B11: anti-mutCALR antibody clone 36 (antibody, human IgG1, lambda, V domains shown)
VH: QVQLVQSGAEVKKPGATVKISCKVSGYSFTDYFIHWVQQAPGKGLAWVGLVDPEDGETIYAEKFQGRVTITADTSTDTAYMELSSLRSEDTAVYYCATPGGILTDPDAFDIWGQGTMVTVSS
VL: QSALTQPRSVSGSPGQSVTISCAGTGSDVGGYNYVSWYQHHPGKAPKLMIYDVNKRPSGVPDRFSGSKSGNTASLTISGLQAEDEADYYCSSYTSSSTFYVFGTGTKVTVLG
IC50 of inhibition of cell proliferation (Ba/F3 cells with MPL and mutCALR Type 1) (Human Type 1 mutCALR [1]): 0.0905 µg/mL
IC50 of inhibition of cell proliferation (BaF3 cells expressing MPL/mutCALR Type 1) (Human Type 1 mutCALR [3]): 0.98 µg/mL
Log IC50 of inhibition of cell proliferation, antibody + ruxolitinib (Ba/F3-TPOR/mutCALR type 1 cells); extrapolated from fitted curve (Human Type 1 mutCALR [2]): -3.88 Log IC50 (µg/mL)

B12: anti-mutCALR antibody clone 35 (antibody, human IgG1, lambda, V domains shown)
VH: QVQLVQSGAEVKKPGATVKISCKVSGYSFTDYFIHWVQQAPGKGLAWVGLVDPEDGETIYAERFQGRVTITADTSTDTAYMELSSLRSEDTAVYYCATPGGILTDPDAFDIWGQGTMVTVSS
VL: QSALTQPASVSGSPGQSITISCTGTSSDVGGYNYVSWYQQHPGKAPKLMIYEVSNRPSGVSNRFSGSKSGNTASLTISGLQAEDEADYYCSSYTSSSTPYVFGTGTKVTVLG
IC50 of inhibition of cell proliferation (Ba/F3 cells with MPL and mutCALR Type 1) (Human Type 1 mutCALR [1]): 0.088 µg/mL
IC50 of inhibition of cell proliferation (BaF3 cells expressing MPL/mutCALR Type 1) (Human Type 1 mutCALR [3]): 2.18 µg/mL

B13: anti-mutCALR antibody clone 34 (antibody, human IgG1, lambda, V domains shown)
VH: QVQLVQSGAEVKKPGATVKISCKVSGYSFTDYFIHWVQQAPGKGLAWVGLVDPEDGETIYAEKFQGRVTITADTSTDTAYMELSSLRSEDTAVYYCATPGGILTDPDAFDIWGQGTMVTVSS
VL: QSALTQPASVSGSPGQSITISCTGTSSDVGGYNYVSWYQQHPGKAPKLMIYEVSNRPSGVSNRFSGSKSGNTASLTISGLQAEDEADYYCSSYTSSSTYVFGTGTKVTVLG
IC50 of inhibition of cell proliferation (Ba/F3 cells with MPL and mutCALR Type 1) (Human Type 1 mutCALR [1]): 0.0593 µg/mL

B14: anti-mutCALR antibody clone 162 (antibody, human IgG1, lambda, N297A)
heavy: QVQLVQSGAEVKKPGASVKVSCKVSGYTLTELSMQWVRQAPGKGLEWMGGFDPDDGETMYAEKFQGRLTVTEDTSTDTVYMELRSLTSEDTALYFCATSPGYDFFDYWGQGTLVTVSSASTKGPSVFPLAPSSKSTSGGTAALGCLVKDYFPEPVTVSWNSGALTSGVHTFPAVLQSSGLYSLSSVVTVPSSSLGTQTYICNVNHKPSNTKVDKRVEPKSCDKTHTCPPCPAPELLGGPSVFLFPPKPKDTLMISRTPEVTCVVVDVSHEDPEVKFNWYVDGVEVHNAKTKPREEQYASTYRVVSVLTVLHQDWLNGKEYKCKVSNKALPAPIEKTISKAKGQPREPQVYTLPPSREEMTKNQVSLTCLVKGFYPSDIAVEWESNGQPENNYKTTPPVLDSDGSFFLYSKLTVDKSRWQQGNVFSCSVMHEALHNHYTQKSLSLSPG
light: SYVLTQPPSVSVAPGKTARITCGGDNIGSKSVHWYQQKPGQAPVLVVYDDSDRPSGIPERFSGSNSGNTATLTISRVEAGDEADYYCQVWDSSNDLLIFGGGTKLTVLGQPKAAPSVTLFPPSSEELQANKATLVCLISDFYPGAVTVAWKADSSPVKAGVETTTPSKQSNNKYAASSYLSLTPEQWKSHRSYSCQVTHEGSTVEKTVAPTECS
notes: human IgG1 N297A variant of clone 15
Kd [4]: 11.2 nM
koff [4]: 0.00682 s⁻¹
kon [4]: 607000 M⁻¹ s⁻¹
